Reference: publication PMC4338332 (RNA, 2015)

Target: T1, Non-POU domain-containing octamer-binding protein (NONO), endogenous, from HeLa nuclear extract (human (endogenous in HeLa), UniProt Q15233 1-471)
T1 sequence: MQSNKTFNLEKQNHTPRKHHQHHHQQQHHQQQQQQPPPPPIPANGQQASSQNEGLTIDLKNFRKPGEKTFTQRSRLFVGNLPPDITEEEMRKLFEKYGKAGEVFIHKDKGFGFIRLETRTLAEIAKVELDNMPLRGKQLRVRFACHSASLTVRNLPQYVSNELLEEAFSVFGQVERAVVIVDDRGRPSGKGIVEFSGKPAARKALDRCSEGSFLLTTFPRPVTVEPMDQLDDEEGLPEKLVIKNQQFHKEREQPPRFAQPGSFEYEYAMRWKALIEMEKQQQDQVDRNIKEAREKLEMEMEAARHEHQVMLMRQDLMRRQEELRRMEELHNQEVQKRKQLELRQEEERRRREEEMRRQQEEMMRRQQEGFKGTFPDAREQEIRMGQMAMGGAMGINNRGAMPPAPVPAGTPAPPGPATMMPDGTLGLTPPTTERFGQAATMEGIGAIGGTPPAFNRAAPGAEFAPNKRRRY
Assay: affinity purification with mass spectrometry

stoichiometry N: 1
B1: Splicing factor, proline- and glutamine-rich (SFPQ), endogenous, from HeLa nuclear extract (natural protein)
chain: MSRDRFRSRGGGGGGFHRRGGGGGRGGLHDFRSPPPGMGLNQNRGPMGPGPGQSGPKPPIPPPPPHQQQQQPPPQQPPPQQPPPHQPPPHPQPHQQQQPPPPPQDSSKPVVAQGPGPAPGVGSAPPASSSAPPATPPTSGAPPGSGPGPTPTPPPAVTSAPPGAPPPTPPSSGVPTTPPQAGGPPPPPAAVPGPGPGPKQGPGPGGPKGGKMPGGPKPGGGPGLSTPGGHPKPPHRGGGEPRGGRQHHPPYHQQHHQGPPPGGPGGRSEEKISDSEGFKANLSLLRRPGEKTYTQRCRLFVGNLPADITEDEFKRLFAKYGEPGEVFINKGKGFGFIKLESRALAEIAKAELDDTPMRGRQLRVRFATHAAALSVRNLSPYVSNELLEEAFSQFGPIERAVVIVDDRGRSTGKGIVEFASKPAARKAFERCSEGVFLLTTTPRPVIVEPLEQLDDEDGLPEKLAQKNPMYQKERETPPRFAQHGTFEYEYSQRWKSLDEMEKQQREQVEKNMKDAKDKLESEMEDAYHEHQANLLRQDLMRRQEELRRMEELHNQEMQKRKEMQLRQEEERRRREEEMMIRQREMEEQMRRQREESYSRMGYMDPRERDMRMGGGGAMNMGDPYGSGGQKFPPLGGGGGIGYEANPGVPPATMSGSMMGSDMRTERFGQGGAGPVGGQGPRGMGPGTPAGYGRGREEYEGPNKKPRF
